Reference: PMC2572221

What was measured:
rat C3b (rat) [1] = test: SPR; Biacore 3000; rat C3b (1000RU) covalently coupled to the chip through its internal thioester after deposition by a convertase on a nidus of human C3b (50RU); different concentrations of the sCrry proteins flowed over; KD from steady state analysis
rat C3b (rat) [2] = biological target: rat C3b (rat)

Kd (rat C3b (rat) [1]) [µM] | Substance | IH50 of inhibition of AP-mediated haemolysis of guinea pig erythrocytes by rat serum, in terms of Crry molarity (rat C3b (rat) [2]) [nM]
5.1 | soluble recombinant form of rat Crry containing the four N-terminal SCRs (domain or fragment) | –
– | rCrry-Ig (Fc fusion) | 168
